The values below are quoted from earlier work in publication PMC6255930.

By Kd is commonly meant the concentration at which binding is half-saturated.

The data set has as its target hemopexin (Homo sapiens) (UniProt P02790).
Chain of UniProt P02790 (P02790 24-462): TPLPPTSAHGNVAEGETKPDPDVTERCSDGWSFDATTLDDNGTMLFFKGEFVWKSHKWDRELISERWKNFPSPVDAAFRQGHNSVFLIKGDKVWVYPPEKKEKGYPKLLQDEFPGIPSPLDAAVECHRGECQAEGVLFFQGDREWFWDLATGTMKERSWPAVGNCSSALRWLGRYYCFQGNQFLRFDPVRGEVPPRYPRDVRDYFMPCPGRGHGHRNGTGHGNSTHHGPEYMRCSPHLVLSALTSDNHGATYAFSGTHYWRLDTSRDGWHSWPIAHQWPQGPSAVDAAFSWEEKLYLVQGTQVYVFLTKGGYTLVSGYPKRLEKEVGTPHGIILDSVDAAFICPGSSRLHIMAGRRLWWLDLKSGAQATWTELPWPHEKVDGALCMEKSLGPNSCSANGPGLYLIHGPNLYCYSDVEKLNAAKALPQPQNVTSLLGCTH

LRP1 (from UniProt Q07954): the Kd is 4 nM.
